Assay [1] addresses synthetic phospho-S463 CRN2 coiled coil peptide (human) (UniProt Q9ULV4). Nature of the assay: SEC-MALS. On the technique in general: In gel filtration, larger molecules generally elute earlier.
Assay [2] shares this target. Nature of the assay: small-angle X-ray scattering.

As for “synthetic phospho-S463 CRN2 coiled coil peptide (from UniProt Q9ULV4 435-474)”, the stoichiometry N in assay [1] and in assay [2] was 3 throughout.
